Measured values published in paper PMC3315493.

How the values were obtained:
[1] = biological target: tetherin Y6,8A (stably expressed in 293T/tetherin Y6,8A cells) (UniProt Q10589); experiment: co-immunoprecipitation (anti-tetherin IP, Western blot, LiCor quantitative imager); settings: MOI of 2, 48 h post infection
[2] = biological target: Vpu of wildtype HIV-1 NL4.3 (expressed from the virus); experiment: as above; settings: 293T/tetherin Y6,8A cells, MOI of 2, 48 h post infection, read off a plot

Substance	response (ratio Vpu/tetherin band intensity in IP) ([1]; UBAP1 siRNA, parent: est. 1.3, read off a plot)	response (ratio Vpu/tetherin band intensity in IP) ([1]; control siRNA, parent: est. 1.6, read off a plot)	response (ratio Vpu/tetherin band intensity in IP) ([2]; UBAP1 siRNA)	response (ratio Vpu/tetherin band intensity in IP) ([2]; control siRNA)
Vpu of wildtype HIV-1 NL4.3 (expressed from the virus) E59A; L63A; V64A	0.9	0.5		
human tetherin (stably expressed in 293T/tetherin cells) (from UniProt Q10589) Y6A; Y8A			1.3	1.6
